Experimental data reported in patent publication EP1224288B1 (Pharis Biotec GmbH, dated 2006).
One block for each binder: values may come before it.

How the values were obtained:
[1] = molecular target: T1, chemokine receptor CCR3 (human, UniProt P51677 1-355); assay: radioligand competition, 0.1 nM 125I-Eotaxin tracer, membranes of CHO-K1 cells expressing CCR3
T1 construct: whole, on cells; Aequorin assays used whole cells
T1 sequence (looked up): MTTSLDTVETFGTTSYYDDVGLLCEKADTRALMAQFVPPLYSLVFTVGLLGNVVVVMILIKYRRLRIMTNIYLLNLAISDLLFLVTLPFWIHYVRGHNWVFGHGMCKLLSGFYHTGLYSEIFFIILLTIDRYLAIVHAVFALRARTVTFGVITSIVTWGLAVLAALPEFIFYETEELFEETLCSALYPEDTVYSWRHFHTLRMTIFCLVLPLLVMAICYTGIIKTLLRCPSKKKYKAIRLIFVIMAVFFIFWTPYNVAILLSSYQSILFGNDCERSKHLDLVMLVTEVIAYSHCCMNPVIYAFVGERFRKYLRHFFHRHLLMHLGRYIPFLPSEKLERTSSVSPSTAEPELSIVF

[2] = molecular target: T2, chemokine receptor 5 (CCR5; AC P51681) (human, UniProt P51681 1-352); assay: radioligand competition, 125I-MIP 1-alpha tracer on CCR5
T2 construct: whole, on cells; Aequorin assays used whole cells co-expressing apoaequorin and G alpha 16
T2 sequence (P51681 whole entry, one chain of several): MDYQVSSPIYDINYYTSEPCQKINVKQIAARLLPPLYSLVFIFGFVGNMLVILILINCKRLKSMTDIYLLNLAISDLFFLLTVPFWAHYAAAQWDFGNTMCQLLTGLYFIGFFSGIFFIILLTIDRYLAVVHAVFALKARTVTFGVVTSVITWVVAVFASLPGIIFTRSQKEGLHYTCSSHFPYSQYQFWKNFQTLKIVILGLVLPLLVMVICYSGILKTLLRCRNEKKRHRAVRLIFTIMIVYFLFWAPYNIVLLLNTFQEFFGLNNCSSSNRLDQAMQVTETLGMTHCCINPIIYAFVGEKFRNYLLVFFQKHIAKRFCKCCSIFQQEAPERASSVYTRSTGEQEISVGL

[3] = molecular target: T3, chemokine receptor CCR1 (human, UniProt P32246 1-355); assay: radioligand competition, 0.1 nM 125I-Rantes tracer, membranes of CHO-K1 cells expressing CCR1
T3 construct: whole, on cells
T3 sequence (looked up): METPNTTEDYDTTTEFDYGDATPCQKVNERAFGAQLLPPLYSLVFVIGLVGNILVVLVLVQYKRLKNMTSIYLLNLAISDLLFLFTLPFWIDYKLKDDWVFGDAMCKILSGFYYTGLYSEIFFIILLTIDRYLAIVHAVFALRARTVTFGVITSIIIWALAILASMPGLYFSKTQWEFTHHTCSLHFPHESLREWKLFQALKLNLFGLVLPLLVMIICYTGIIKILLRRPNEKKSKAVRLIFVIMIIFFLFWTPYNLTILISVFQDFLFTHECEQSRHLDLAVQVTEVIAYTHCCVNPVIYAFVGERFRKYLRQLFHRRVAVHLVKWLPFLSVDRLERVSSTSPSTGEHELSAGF

[4] = molecular target: T2, chemokine receptor 5 (CCR5; AC P51681); assay: cell-based or functional assay
[5] = molecular target: T1, chemokine receptor CCR3; assay: cell-based or functional assay
[6] = molecular target: T3, chemokine receptor CCR1; assay: cell-based or functional assay
[7] = molecular target: T2, chemokine receptor 5 (CCR5; AC P51681); assay: radioligand competition, 0.1 nM 125I-MIP 1-alpha tracer, membranes of CHO-K1 cells expressing CCR5
[8] = molecular target: T1, chemokine receptor CCR3; assay: radioligand competition, 125I-Eotaxin tracer on CCR3
[9] = molecular target: T3, chemokine receptor CCR1; assay: radioligand competition, 125I-Rantes tracer on CCR1
[10] = molecular target: T3, chemokine receptor CCR1; assay: radioligand competition binding on CCR1

B3: MIP 1-alpha (ligand, UniProt P10147 24-92, looked up)
chain: SLAADTPTACCFSYTSRQIPQNFIADYFETSSQCSKPGVIFLTKRSRQVCADPSEEWVQKYVSDLELSA
modifications: also: 125I-labelled as tracer, position not given here
Aequorin assay, activation of CCR5 transfected CHO-K1 cells, EC50 [4]: 3.3 nM

B4: RANTES (ligand, UniProt P13501 24-91, looked up)
chain: SPYSSDTTPCCFAYIARPLPRAHIKEYFYTSGKCSNPAVVFVTRKNRQVCANPEKKWVREYINSLEMS
modifications: also: 125I-labelled as tracer, position not given here
Aequorin assay, activation of CCR5 transfected CHO-K1 cells, EC50 [4]: 2.4 nM
Aequorin assay, EC50 [6]: 6.3 nM

Next, values leading:

IC50 [1]: 78 nM
Ki [2]: 0.04 nM
IC50 [3]: 2.3 nM
Aequorin assay, activation of CCR5 transfected CHO-K1 cells, EC50 [4]: 4.8 nM
Aequorin assay, EC50 [5]: 78 nM
Aequorin assay, EC50 [6]: 2.8 nM
IC50 [7]: 0.04 nM
Ki [8]: 2.7 nM
Ki [9]: 0.023 nM
B1: processed chemokine PHC-1 (HCC-1, residues 9-74) (ligand)
chain: GPYHPSECCFTYTTYKIPRQRIMDYYETNSQCSKPGIVFITKRGHSVCTNPSDKWVQDYIKDMKEN
notes: also called HCC-1[9-74]

Ki [10]: 100 nM
B2: full size HCC-1 (HCC-1, residues 1-74) (ligand)
chain: TKTESSSRGPYHPSECCFTYTTYKIPRQRIMDYYETNSQCSKPGIVFITKRGHSVCTNPSDKWVQDYIKDMKEN
notes: also called full-length HCC-1; HCC-1, 1-74
